Patent US20260193347A1 (UNIVERSITY OF FLORIDA RESEARCH FOUNDATION, published 2026)

Experiments:
[1] = biological target: T1, mGlyR (GPR158) co-expressed in HEK293FT cells in the BRET-based GAP assay (human, UniProt Q5T848 24-1215); assay: cell-based or functional assay
T1 sequence: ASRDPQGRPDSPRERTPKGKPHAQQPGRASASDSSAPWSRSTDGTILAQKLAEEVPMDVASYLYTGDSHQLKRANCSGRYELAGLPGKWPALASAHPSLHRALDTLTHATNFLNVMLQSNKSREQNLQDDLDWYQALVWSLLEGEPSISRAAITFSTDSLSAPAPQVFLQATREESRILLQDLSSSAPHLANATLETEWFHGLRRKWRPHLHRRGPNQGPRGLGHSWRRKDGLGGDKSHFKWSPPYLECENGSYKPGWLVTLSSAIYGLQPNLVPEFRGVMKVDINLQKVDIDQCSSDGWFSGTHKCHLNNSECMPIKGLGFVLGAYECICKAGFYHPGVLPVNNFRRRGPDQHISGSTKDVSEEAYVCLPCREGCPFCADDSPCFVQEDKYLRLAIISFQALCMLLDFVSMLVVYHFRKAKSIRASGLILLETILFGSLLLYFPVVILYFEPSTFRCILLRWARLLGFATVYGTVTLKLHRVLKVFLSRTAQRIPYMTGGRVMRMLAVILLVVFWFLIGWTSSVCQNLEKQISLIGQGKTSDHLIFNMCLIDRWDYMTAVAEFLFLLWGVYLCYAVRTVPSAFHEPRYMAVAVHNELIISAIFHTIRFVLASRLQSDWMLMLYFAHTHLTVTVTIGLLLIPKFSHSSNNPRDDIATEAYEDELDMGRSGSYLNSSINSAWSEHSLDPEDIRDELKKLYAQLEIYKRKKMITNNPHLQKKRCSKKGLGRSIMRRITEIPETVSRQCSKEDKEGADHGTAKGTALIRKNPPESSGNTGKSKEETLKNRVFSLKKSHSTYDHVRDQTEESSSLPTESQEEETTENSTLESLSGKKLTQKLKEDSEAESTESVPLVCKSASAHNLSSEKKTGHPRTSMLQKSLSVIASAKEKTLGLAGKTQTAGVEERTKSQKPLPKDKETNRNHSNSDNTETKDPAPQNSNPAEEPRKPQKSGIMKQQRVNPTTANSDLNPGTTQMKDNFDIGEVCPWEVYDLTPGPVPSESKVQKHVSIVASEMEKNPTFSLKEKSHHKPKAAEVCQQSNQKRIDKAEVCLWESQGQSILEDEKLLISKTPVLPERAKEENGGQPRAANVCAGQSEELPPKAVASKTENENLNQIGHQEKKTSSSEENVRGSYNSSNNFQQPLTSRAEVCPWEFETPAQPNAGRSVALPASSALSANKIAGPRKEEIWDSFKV

[2] = biological target: T2, Venus-tagged full length GPR158 (mGlyR) transiently expressed on HEK293 cells (human, UniProt Q5T848 24-1215); assay: flow cytometry titration on GPR158-transfected HEK293 cells
T2 construct: This is the flow cytometry target; not shown: Venus tag
T2 sequence: T1 sequence

[3] = biological target: T2, Venus-tagged full length GPR158 (mGlyR) …; assay: flow cytometry, % of positive cells against Log [Nanobody] (M), cells expressing mGlyR, n=3, detection with anti-myc-APC
Experimental: Error bars are SEM values (n=3 independent experiments).
HEK293FT cells were cultured in 6 well plates at the density of 1.10⁶ per well and transfected with 2 μg of cDNA of mGlyR or empty pcDNA3.1+ in control experiments, using Metafectene Pro. 48 h after transfection, cells were mechanically detached pipetting up-down, washed in PBS supplemented with 0.1% BSA, counted and incubated in PBS-0.1% BSA for 1 h at 4° C. under rotation. […] After 3 washes, cells were analyzed in LSR-II BD flow cytometer. Gating strategy to sort individual cells to debris and doublets was used.

B1: llama nanobody Nb20 (Nanobody-20), purified recombinant, myc- and His-tagged (VHH, not shown: small tags and cut ends)
VHH: EVQLQESGGGLVQAGGSLRLSCAASGSIGNIYIMGWYRQTPGPQRELVATIRTVRWTKYEDYADSVKGRFTISDDDAKNTVYLQMNSLKPEDTAVYYCNYKDYNAPSDGYWGQGTQVTVSS
notes: Expressed in E. coli BL21 DE3 from pET28a and purified on Ni-IDA; Detected by an anti-myc-APC antibody in flow cytometry; The two passages disagree on where the tags sit; also called clone number 20
Q: What does the source list for B1?
A: IC50, dose-response of changes in GAP activity (BRET-based GAP assay) [1]: ~6 nM; IC50, inhibition of GAP activity of GPR158 via RGS7/Gβ5 (BRET-based GAP assay) [1]: 5.77 nM; EC50 [2]: ~10 nM; EC50 [3]: 9.9 nM
